Assay results taken from patent US20200138986A1 (FREDAX, published 2020).

Legend:
[1] = target: T1, human glandular kallikrein 2 (hK2) (human, UniProt P20151 25-261); assay: cell-based or functional assay
[2] = target: T1, human glandular kallikrein 2 (hK2); assay: method not stated (told in the Materials section of Example 10)
[3] = target: T2, free prostate-specific antigen (fPSA) (human, UniProt P07288 25-261); assay: Time-resolved Eu fluorescence immunoassay: coat goat anti-human polyclonal, 5A10-Fab 15 ng/well, Eu-PSA titrated from about 0.15 to 20 ng/well [upper and lower panels]
T2 construct: In the IRMA, fPSA was spiked into female plasma and captured by mAb H117; also called hk3; human kallikrein 3
T2 sequence (P07288 25-261 limits assumed): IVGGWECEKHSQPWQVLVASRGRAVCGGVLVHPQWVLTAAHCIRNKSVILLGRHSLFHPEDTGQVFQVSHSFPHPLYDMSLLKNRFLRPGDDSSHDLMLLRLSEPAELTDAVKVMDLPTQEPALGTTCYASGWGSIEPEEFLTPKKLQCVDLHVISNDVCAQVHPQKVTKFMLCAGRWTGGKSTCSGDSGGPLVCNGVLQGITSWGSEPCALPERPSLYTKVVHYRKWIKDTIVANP

T1 sequence (P20151 25-261 limits assumed): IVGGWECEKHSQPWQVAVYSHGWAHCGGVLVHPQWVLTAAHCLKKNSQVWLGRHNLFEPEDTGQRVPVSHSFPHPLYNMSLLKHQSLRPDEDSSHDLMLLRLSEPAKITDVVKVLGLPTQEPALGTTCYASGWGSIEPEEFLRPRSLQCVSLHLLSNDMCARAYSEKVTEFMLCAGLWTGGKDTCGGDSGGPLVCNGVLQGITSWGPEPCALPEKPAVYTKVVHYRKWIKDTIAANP

B1: 111In-CHX-A''-DTPA-11B6 (antibody, V domains shown)
VH: DVQLQESGPGLVKPSQSLSLTCTVTGNSITSDYAWNWIRQFPGNRLEWMGYISYSGSTTYSPSLKSRFSITRDTSKNQFFLQLNSVTPEDTATYFCATGYYYGSGFWGQGTLVTVSS
VL: DIVLTQSPASLAVSLGQRATISCRASESVEYFGTSLMHWYRQKPGQPPKLLIYAASNVESGVPARFSGSGSGTDFSLNIQPVEEDDFSMYFCQQTRKVPYTFGGGTKLEIK
modifications: CHX-A''-DTPA chelator conjugated to the antibody and labelled with 111In; sites not stated
[1]
  tumor uptake in hK2-expressing xenografts (LnCAP) against hK2-negative xenografts (DU145) at 48 hpi: > 3 fold

B2: mAb 11B6 (mouse monoclonal anti-hK2 antibody) (antibody, V domains shown)
VH: DVQLQESGPGLVKPSQSLSLTCTVTGNSITSDYAWNWIRQFPGNRLEWMGYISYSGSTTYSPSLKSRFSITRDTSKNQFFLQLNSVTPEDTATYFCATGYYYGSGFWGQGTLVTVSS
VL: DIVLTQSPASLAVSLGQRATISCRASESVEYFGTSLMHWYRQKPGQPPKLLIYAASNVESGVPARFSGSGSGTDFSLNIQPVEEDDFSMYFCQQTRKVPYTFGGGTKLEIK
notes: Whole mouse monoclonal antibody obtained from the University of Turku; also called m11B6; mouse mAb 11B6
[2]
  Kd: ~1.2 nM

B3: 5A10-Fab (Fab, V domains shown)
VH: EVQLVESGPGILQPSQTLSLTCSFSGFSLSTTGMGVSWIRQPSGKGLEWLAHLYWDEDKRYNPSLKSRLTISEDSSRNQVFLKITSVGPADSATYYCARKGYYGYFDYWGQGTALTVSS
VL: DIVMTQSQKFMSTSVGDRVSVTCKASQNVNTDVAWYQQKPGQSPKALIFSTSYRSSGVPDRFTGSGSGTDFTLTITNVQSEDLAEYFCQQYSNYPLTFGAGTKVDLN
notes: also called exemplary 5A10-Fab; Fab fragment of anti-PSA antibody 5A10
[3]
  binding result: binds
